The values below are quoted from earlier work in paper PMC4569521 (Journal of molecular biology, 2015).

This data set deals with ClpXP (Escherichia coli, UniProt P0A6G7+P0A6H1). The following applies: MuA monomers; ref [23].
Chain of ClpXP (P0A6H1 whole entry): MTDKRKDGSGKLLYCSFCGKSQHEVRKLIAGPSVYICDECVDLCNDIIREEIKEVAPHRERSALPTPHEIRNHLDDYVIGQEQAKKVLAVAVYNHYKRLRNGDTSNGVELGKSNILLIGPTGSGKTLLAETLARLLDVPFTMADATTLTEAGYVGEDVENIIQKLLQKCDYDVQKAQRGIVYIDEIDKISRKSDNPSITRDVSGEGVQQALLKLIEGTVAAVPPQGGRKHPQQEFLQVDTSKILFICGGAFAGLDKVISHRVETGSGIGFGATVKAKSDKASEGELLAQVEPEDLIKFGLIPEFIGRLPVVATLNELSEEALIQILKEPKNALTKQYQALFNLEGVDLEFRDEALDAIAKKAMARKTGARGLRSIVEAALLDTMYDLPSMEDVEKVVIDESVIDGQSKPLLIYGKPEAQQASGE
Chain of ClpXP (P0A6G7 15-207 partner): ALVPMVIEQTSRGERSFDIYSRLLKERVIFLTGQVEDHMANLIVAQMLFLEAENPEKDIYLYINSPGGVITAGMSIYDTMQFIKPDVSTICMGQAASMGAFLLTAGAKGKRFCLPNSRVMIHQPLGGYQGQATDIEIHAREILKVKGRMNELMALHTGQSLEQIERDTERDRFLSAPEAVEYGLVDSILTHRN

Turning to “MuA monomers: Phage Mu transposase, ~75kDa, three domains; monomer in solution”, the “appKM for degradation by ClpXP” value is recorded as ~ 10 μM.
